Data taken from publication PMC8631079.

Columns and labels:
[1] = target: GH43_1 from PUL15 of Prevotella copri DSM18205 (intracellular β-xylosidase / exo-β-xylanase) (Prevotella copri DSM 18205); test: SEC; HiPrep 16/60 Sephacryl S-300 HR column, 0.5 mL/min, sodium phosphate 50 mM, NaCl 150 mM, pH 7.0; calibrated with molecular weight standards 20-700 kDa; native mass compared with the theoretical mass
[2] = target: GH10 (1) from PUL15 of Prevotella copri DSM18205 (extracellular endo-1,4-β-xylanase) (Prevotella copri DSM 18205); test: as above

Substance | stoichiometry N [1] | stoichiometry N [2]
GH43_1 from PUL15 of Prevotella copri DSM18205 (intracellular β-xylosidase / exo-β-xylanase) (enzyme) | 2 | –
GH10 (1) from PUL15 of Prevotella copri DSM18205 (extracellular endo-1,4-β-xylanase) (enzyme) | – | 2
